The target in assay [1] is T1, mouse PER1 1013-1291 R1111A (mouse, UniProt O35973 1013-1291, R1111A). The experiment in a line: ITC.
The target in assay [2] is T1, mouse PER1 1013-1291 R1111A. The experiment in a line: ITC. The source holds these as a separate data set.

For one molecule, Kd results are on record in PMC13649712 (2026).

In general, Kd refers to a measure of binding affinity in units of concentration.

Read-outs that look alike come from different tables or passages of the source.

B1: mouse CRY1 1-496 (PHR) (domain or fragment)
chain: MGVNAVHWFRKGLRLHDNPALKECIQGADTIRCVYILDPWFAGSSNVGINRWRFLLQCLEDLDANLRKLNSRLFVIRGQPADVFPRLFKEWNITKLSIEYDSEPFGKERDAAIKKLATEAGVEVIVRISHTLYDLDKIIELNGGQPPLTYKRFQTLVSKMEPLEMPADTITSDVIGKCMTPLSDDHDEKYGVPSLEELGFDTDGLSSAVWPGGETEALTRLERHLERKAWVANFERPRMNANSLLASPTGLSPYLRFGCLSCRLFYFKLTDLYKKVKKNSSPPLSLYGQLLWREFFYTAATNNPRFDKMEGNPICVQIPWDKNPEALAKWAEGRTGFPWIDAIMTQLRQEGWIHHLARHAVACFLTRGDLWISWEEGMKVFEELLLDADWSINAGSWMWLSCSSFFQQFFHCYCPVGFGRRTDPNGDYIRRYLPVLRGFPAKYIYDPWNAPEGIQKVAKCLIGVNYPKPMVNHAEASRLNIERMKQIYQQLSRYRG
Take B1: the Kd in assay [1] was 10 nM; in assay [2], 9.8 nM.
